Assay results published in patent US20120093813A1 (Pfizer, published 2012).
Where “and” joins values, the source holds several entries; their conditions need not be identical. Identical values can stand only once.

Tests used:
[1] = target: T1, murine Notch1-NRRHD (mouse, UniProt Q01705 19-33; Q01705 1443-1723); test: ELISA on coated conditioned medium
T1 construct: domain: Notch1-NRRHD (nucleotide 1-99);domain: Notch1-NRRHD (nucleotide 4327 to 5169); Nucleotide limits only; if counted from the start codon they are residues 1-33 and 1443-1723 (my conversion); Used as conditioned medium; also called MuN1-NRRHD; mouse Notch1
T1 sequence (looked up): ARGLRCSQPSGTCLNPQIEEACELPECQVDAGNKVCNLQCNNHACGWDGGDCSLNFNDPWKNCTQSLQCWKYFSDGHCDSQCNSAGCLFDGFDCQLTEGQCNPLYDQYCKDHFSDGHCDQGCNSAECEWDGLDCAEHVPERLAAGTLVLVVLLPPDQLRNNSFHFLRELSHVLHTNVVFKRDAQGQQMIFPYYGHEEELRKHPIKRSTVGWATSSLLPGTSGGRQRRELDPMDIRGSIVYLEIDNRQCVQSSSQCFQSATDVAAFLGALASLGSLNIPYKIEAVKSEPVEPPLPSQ
Description: (§1) We further made domain-swap chimeric Notch1-NRRHD expression constructs using the human Notch1-NRRHD sequence (Nucleotide 1-129 and 4338-5202, NCBI Accession # NM_{—}017617) as frame work, systematically exchanged the human Lin-A, Lin-B or HD-C domains with the corresponding mouse domains.

[2] = target: T2, Notch1 chimeric antigen, HD-C domain swapped with murine sequence; test: ELISA on coated conditioned medium
T2 construct: also called Mu/HD-C
Description: as §1

[3] = target: T3, human Notch1-NRRHD (human, UniProt P46531 19-43; P46531 1446-1733); test: ELISA on coated conditioned medium
T3 construct: domain: Notch1-NRRHD (nucleotide 1-129);domain: Notch1-NRRHD (nucleotide 4338-5202); If counted from the start codon they are about residues 1-43 and 1447-1734 (my conversion); Used as conditioned medium; also called huN1-NRRHD; human Notch1 antigen
T3 sequence (looked up): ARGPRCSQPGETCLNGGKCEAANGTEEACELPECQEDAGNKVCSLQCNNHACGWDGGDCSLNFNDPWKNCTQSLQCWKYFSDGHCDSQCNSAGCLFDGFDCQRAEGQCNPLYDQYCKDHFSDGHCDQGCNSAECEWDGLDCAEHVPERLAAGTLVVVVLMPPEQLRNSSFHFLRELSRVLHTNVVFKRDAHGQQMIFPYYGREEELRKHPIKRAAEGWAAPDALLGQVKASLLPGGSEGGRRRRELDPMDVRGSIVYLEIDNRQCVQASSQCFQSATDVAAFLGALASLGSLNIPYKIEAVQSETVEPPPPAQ
Description: as §1

[4] = target: T4, Notch1 chimeric antigen, Lin-B domain swapped with murine sequence; test: ELISA on coated conditioned medium
T4 construct: also called Mu/Lin-B
Description: as §1

[5] = target: T1, murine Notch1-NRRHD; test: heading printed under Table 3; it introduces the following ELISA experiment with human and murine Notch1-NRRHD
Description: as §1

[6] = target: Notch1 of HPB-ALL cells (human, UniProt P46531 19-2555); test: cell-based or functional assay
[7] = target: T5, Notch1 chimeric antigen, Lin-A domain swapped with corresponding Notch2 domain; test: ELISA, conditioned medium of chimeric antigen coated, 300 ng mAb per well
T5 construct: Used as conditioned medium of transfected 293-F cells
Method: (§2) For understanding the mechanism of action by Notch1-antagonist mAb, binding epitopes of Notch1-antagonist mAbs were analyzed by domain swap and ELISA binding assay. The Notch1-NRR-TM(−)/Fc protein was divided into six domains: EGF (including EGF35-36), Lin12-A (or Lin-A), Lin-B, Lin-C, heterodimerization domain-N (or HD-N) and HD-C (FIG. 5). Each of the domains were swapped for that corresponding to human Notch2 by PCR synthesis in a series of chimeric Notch1-NRR-TM(−)/Fc expression constructs. The domain-swap plasmids were transfected in Freestyle™ 293-F cells (Invitrogen, Inc., Calsbad, Calif.) using Freestyle™ Max Reagent (Invitrogen) as described above in Example 1. After being cultured for three days, the conditioned media was subjected to Western blot analysis and an ELISA binding assay by Notch1 mAbs.
(§3) In ELISA assay, the 100 microliters of the conditioned medium from the above antigen plasmids-transfected cell culture were loaded in each well of the 96-well plate, and plates were incubated at room temperature for 4 hours or 4° C. for overnight. The condition medium was then removed from the coated plates. For primary antibody binding, 300 ng of each mAb (Table 3) in 100 microliters of PBS was added to the coated well. The rest of the ELISA procedure is the same as described in Example 2.

[8] = target: T6, Notch1 chimeric antigen, HD-C domain swapped with corresponding Notch2 domain; test: as above
T6 construct: Used as conditioned medium of transfected 293-F cells
Method: as §2, §3

[9] = target: T7, Notch1 chimeric antigen, HD-N domain swapped with corresponding Notch2 domain; test: as above
T7 construct: Used as conditioned medium of transfected 293-F cells
Method: as §2, §3

[10] = target: T8, Notch1 chimeric antigen, Lin-C domain swapped with corresponding Notch2 domain; test: as above
T8 construct: Used as conditioned medium of transfected 293-F cells
Method: as §2, §3

[11] = target: T9, Notch1 chimeric antigen, EGF domain swapped with corresponding Notch2 domain; test: as above
T9 construct: Used as conditioned medium of transfected 293-F cells
Method: as §2, §3

[12] = target: T10, N1-NRR-TM(-)/Fc fusion protein (human); test: SPR, Biacore 3000, N1-NRR-TM(-)Fc captured on Protein A, mAb injected
T10 construct: Secreted from 293-F cells, purified on protein G; also called Notch1-NRR-TM(-)/Fc; N1-NRR-TM(-)Fc protein; not shown: Human Fc of the Fc-fusion vector, fused C-terminal of the immunogen, plus any junction residues
T10 chain: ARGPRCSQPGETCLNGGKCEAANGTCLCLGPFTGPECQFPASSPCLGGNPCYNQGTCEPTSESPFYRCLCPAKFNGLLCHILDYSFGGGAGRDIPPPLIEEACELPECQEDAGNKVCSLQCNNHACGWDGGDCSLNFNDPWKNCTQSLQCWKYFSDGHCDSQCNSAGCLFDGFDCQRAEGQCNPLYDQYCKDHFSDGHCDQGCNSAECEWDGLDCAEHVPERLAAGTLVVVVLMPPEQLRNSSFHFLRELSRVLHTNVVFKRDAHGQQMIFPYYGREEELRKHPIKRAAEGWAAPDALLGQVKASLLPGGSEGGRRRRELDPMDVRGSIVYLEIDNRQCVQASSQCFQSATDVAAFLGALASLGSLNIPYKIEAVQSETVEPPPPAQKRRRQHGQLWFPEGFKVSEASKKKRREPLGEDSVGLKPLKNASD
Method: Protein A was amine-coupled at saturating levels onto the chip using a standard N-hydroxysuccinimide/ethyldimethylaminopropyl carbodiimide (NHS/EDC) chemistry. N1-NRR-TM(−)Fc protein (described in Example 1) was captured to the chip surface by Protein A in all three flow cells at 40, 13, 4 ug/ml. […] Dissociation was monitored for 20 minutes. The chip was regenerated after the last injection of each titration with two 30 second pulses of 100 mM phosphoric acid. Buffer cycles provided blanks for double-referencing the data, which were then fit globally to a simple binding model using Biaevaluation software v.4.1. Affinities were deduced from the quotient of the kinetic rate constants (KD=koff/kₒₙ).

ELISA reading [1]: 0.17
ELISA reading [2]: 3.17
ELISA reading [3]: 3.13
ELISA reading [4]: 3.37
binding result [5]: no binding
IC50 of cell growth inhibition, HPB-ALL cells, 7 days [6]: ~0.78 µg/ml and ~5.2 nM
ELISA reading [7]: 0.05
ELISA reading [8]: 0.04
ELISA reading [9]: 3.52
ELISA reading [10]: 3.48
ELISA reading [11]: 3.51
Kd [12]: < 0.33 nM
koff [12]: < 0.00017 s⁻¹
B1: mouse monoclonal antibody N248A (antibody, IgG1, V domains shown)
VH: QVQLQQSGAELMKPGASVKISCKATGYTFSNYWMEWVKQRPGHGLEWIGEILPGRGRTNYNENFKGKATFTADTSSNTVYMQLNSLTSEDSAVYYCARFHSSAYYYTMDYWGQRTSVTVSS
VL: QAVVTQESALTTSPGETVTLTCRSSTGAVTTSNYANWVQEKPDHLFTGLIGGTNNRAPGIPARFSGSLIGDKAALTITGAQTEDEAIYFCALWYSNHWVFGGGTKLTVL
notes: treated as one antibody; also called mAb N248A; N248A1
